Measured values as given in US20160046707A1 (EISAI R AND D MANAGEMENT, published 2016).

Columns and labels:
Assay in all cases: ELISA, plate-bound chemokine (1 ug/ml), antibody 10 ug/ml, OD450
recombinant human CCL28 = molecular target: T1, recombinant human CCL28 (human, UniProt Q9NRJ3 23-127, limits assumed)
T1 sequence (looked up): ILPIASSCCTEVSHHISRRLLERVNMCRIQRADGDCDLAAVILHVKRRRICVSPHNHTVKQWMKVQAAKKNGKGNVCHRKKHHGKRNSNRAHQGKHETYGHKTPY
Method: (§1) The wells of a 96-well plate were coated with 1 μg/ml of the recombinant human chemokines in PBS (−). After overnight incubation at 4° C., the wells were blocked with 1× Block-Ace (Dainippon Sumitomo Pharma, UK-B80) for 1 hour at room temperature. After washing twice with 0.02% Tween 20/PBS (−), we added 50 μl of 10 μg/ml purified 36F7C10, chimeric 36F710, HC2/LK3, or HC2/LC3 in 0.02% Tween 20/PBS (−) to each well. The wells were incubated for 1 hour at room temperature and washed three times as described in Example 3. […] After washing five times, a TMBZ (3,3′,5,5′-tetramethylbenzidine) solution (1%, in N,N-Dimethylformamide) was added to the wells and incubated for 15-30 minutes. The reaction was stopped by adding an equal volume of a 2 M H₂SO₄ stopping solution, and the optical density was read at 450 nm by ARVO (PerkinElmer).

recombinant human CCL27 = molecular target: T2, recombinant human CCL27 (human, UniProt Q9Y4X3 25-112)
T2 construct: also called CTACK
T2 sequence (looked up): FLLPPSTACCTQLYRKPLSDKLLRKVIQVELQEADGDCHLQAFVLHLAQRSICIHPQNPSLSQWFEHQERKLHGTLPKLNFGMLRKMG
Method: as §1

recombinant human CCL25 = molecular target: T3, recombinant human CCL25 (human, UniProt O15444 24-150)
T3 construct: also called TECK
T3 sequence (looked up): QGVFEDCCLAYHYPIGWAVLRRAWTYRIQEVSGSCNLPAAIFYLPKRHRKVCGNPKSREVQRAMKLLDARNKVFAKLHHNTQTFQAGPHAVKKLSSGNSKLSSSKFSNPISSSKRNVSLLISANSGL
Method: as §1

recombinant human CCL24 = molecular target: T4, recombinant human CCL24 (human, UniProt O00175 27-119, limits assumed)
T4 construct: also called Eotaxin-2/MPIF-2
T4 sequence (looked up): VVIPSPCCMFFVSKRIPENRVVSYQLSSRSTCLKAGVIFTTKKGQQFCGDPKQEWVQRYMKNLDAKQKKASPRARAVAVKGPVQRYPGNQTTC
Method: as §1

recombinant human CCL22 = molecular target: T5, recombinant human CCL22 (human, UniProt O00626 25-93)
T5 construct: also called MDC
T5 sequence (looked up): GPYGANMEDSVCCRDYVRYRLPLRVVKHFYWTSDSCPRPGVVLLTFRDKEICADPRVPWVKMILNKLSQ
Method: as §1

recombinant human CCL7 = molecular target: T6, recombinant human CCL7 (human, UniProt P80098 24-99)
T6 construct: also called MARC
T6 sequence (P80098 24-99 limits assumed): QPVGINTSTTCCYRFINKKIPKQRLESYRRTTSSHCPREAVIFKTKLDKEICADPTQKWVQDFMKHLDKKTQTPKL
Method: as §1

recombinant human CCL5 = molecular target: T7, recombinant human CCL5 (human, UniProt P13501 24-91)
T7 construct: also called Rantes
T7 sequence (looked up): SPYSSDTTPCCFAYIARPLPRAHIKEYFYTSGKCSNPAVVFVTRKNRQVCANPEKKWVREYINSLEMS
Method: as §1

recombinant human CCL2 = molecular target: T8, recombinant human CCL2 (human, UniProt P13500 24-99)
T8 construct: also called MCP-1/MCAF/JE
T8 sequence (P13500 24-99 limits assumed): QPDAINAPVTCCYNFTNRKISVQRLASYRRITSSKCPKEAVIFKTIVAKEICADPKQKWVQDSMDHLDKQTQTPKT
Method: as §1

recombinant human CXCL16 = molecular target: T9, recombinant human CXCL16 (human, UniProt Q9H2A7 30-118, limits assumed)
T9 sequence (looked up): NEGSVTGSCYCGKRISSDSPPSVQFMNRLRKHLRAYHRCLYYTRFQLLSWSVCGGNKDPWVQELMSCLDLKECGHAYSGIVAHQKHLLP
Method: as §1

recombinant human CXCL13 = molecular target: T10, recombinant human CXCL13 (human, UniProt O43927 23-109)
T10 construct: also called BCA-1/BLC
T10 sequence (looked up): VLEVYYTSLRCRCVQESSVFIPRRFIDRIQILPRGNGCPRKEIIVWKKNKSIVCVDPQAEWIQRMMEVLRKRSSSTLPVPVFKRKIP
Method: as §1

recombinant human CXCL10 = molecular target: T11, recombinant human CXCL10 (human, UniProt P02778 22-98)
T11 construct: also called IP-10
T11 sequence (looked up): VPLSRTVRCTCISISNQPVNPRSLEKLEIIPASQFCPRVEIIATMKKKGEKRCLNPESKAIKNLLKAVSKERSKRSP
Method: as §1

[1] = molecular target: T12, recombinant human CX3CL1 (Chemokine Domain) (human, UniProt P78423 25-100)
T12 construct: domain: Chemokine Domain; also called FKN
T12 sequence (looked up): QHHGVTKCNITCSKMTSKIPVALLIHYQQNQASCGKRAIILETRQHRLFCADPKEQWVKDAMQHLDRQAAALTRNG
Method: as §1

[2] = molecular target: T13, recombinant human CX3CL1 (Extracellular Domain) (human, UniProt P78423 25-341)
T13 construct: extracellular domain; also called FKN
T13 sequence (looked up): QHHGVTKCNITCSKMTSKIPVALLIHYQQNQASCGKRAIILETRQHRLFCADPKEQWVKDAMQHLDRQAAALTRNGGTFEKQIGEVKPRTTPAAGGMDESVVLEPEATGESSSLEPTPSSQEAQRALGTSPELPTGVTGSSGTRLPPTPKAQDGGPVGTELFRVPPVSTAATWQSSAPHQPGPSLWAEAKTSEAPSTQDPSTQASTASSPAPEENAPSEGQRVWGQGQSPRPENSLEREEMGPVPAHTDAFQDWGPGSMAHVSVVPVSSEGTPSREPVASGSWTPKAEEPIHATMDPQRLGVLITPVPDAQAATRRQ
Method: as §1

Measured: binding result

B1: mouse anti-human CCL20 monoclonal antibody 36F7C10 (antibody, V domains shown)
VH: QVQLQQPGAELVKPGASVKMSCKASGYTFTNYWMHWVKQRPGQGLEWIGVIDPSDSYTTYNQKFKGKATLTVDTSSSTAYMQLSSLTSEDSAVYYCTRGNYGVDYAMDYWGQGTSVTVSS
VL: DIQMTQSPASLSASVGETVTITCGASENIYGALNWYQRKQGKSPQLLIYGATNLADGMSSRFSGSGSGRQYSLKISSLHPDDVATYYCQNVLITPYTFGGGTKLEIK
notes: Mouse hybridoma antibody; also called MouseMAb; parental mouse clone 36F7C10
no binding (tested: 10 ug/ml): all assays above

B2: chimeric 36F7C10 antibody (36F7C10-hFc) (antibody, V domains shown)
VH: QVQLQQPGAELVKPGASVKMSCKASGYTFTNYWMHWVKQRPGQGLEWIGVIDPSDSYTTYNQKFKGKATLTVDTSSSTAYMQLSSLTSEDSAVYYCTRGNYGVDYAMDYWGQGTSVTVSS
VL: DIQMTQSPASLSASVGETVTITCGASENIYGALNWYQRKQGKSPQLLIYGATNLADGMSSRFSGSGSGRQYSLKISSLHPDDVATYYCQNVLITPYTFGGGTKLEIK
notes: also called chimeric 36F710; Chimeric MAb
no binding (tested: 10 ug/ml): all assays above

B3: humanized anti-human CCL20 antibody 36LK3/36HC2 (antibody, human IgG1, kappa, V domains shown)
VH: QVQLVQSGAEVKKPGASVKVSCKASGYTFTNYWMHWVRQAPGQGLEWMGVIDPSDSYTTYAQKFQGRVTMTVDTSTSTVYMELSSLRSEDTAVYYCARGNYGVDYAMDYWGQGTLVTVSS
VL: DIQMTQSPSSLSASVGDRVTITCGASENIYGALNWYQRKPGKAPKLLIYGATNLADGVPSRFSGSGSGRDYTLTISSLQPEDFATYYCQNVLITPYTFGQGTKLEIKR
notes: expressed in HEK293 cells; also called HC2/LK3; HC2LK3
no binding (tested: 10 ug/ml): all assays above

B4: humanized anti-human CCL20 antibody 36LC3/36HC2 (antibody, human IgG1, kappa, V domains shown)
VH: QVQLVQSGAEVKKPGASVKVSCKASGYTFTNYWMHWVRQAPGQGLEWMGVIDPSDSYTTYAQKFQGRVTMTVDTSTSTVYMELSSLRSEDTAVYYCARGNYGVDYAMDYWGQGTLVTVSS
VL: DIQMTQSPSSLSASVGDRVTITCRASENIYGALNWYQQKPGKAPKLLIYGATNLADGVPSRFSGSGSGRQYSLTISSLQPEDFATYYCQNVLITPYTFGGGTKLEIKR
notes: expressed in HEK293 cells; also called HC2/LC3; HC2LC3
no binding (tested: 10 ug/ml): all assays above
